Experimental data taken from patent USRE47150 (Bayer, dated 2018).
Changes are numbered by the printed parent chain. Names and notes keep the numbering of the source.

T1: human tissue factor pathway inhibitor (TFPI) (human, UniProt P10646 29-304, limits assumed)
T1 construct: bought; also called hTFPI; human TFPI
T1 sequence (looked up): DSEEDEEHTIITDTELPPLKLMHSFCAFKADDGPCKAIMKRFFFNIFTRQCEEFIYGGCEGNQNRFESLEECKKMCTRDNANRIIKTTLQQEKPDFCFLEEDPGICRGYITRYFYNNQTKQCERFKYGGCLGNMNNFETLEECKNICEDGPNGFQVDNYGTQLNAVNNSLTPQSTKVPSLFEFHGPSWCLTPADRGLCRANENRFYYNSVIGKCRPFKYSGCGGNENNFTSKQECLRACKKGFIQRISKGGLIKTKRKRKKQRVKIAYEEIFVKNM

T2: mouse tissue factor pathway inhibitor (TFPI) (mouse, UniProt O54819 29-289, limits assumed)
T2 construct: bought; also called mTFPI; murine TFPI
T2 sequence (looked up): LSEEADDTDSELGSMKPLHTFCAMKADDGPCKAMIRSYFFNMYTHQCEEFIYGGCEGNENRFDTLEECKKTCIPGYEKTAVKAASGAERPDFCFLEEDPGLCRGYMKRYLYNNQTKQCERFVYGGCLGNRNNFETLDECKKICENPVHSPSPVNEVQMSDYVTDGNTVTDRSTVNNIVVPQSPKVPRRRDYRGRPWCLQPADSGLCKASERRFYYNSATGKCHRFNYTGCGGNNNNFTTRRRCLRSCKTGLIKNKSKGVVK

B1: B27.1 (4B7 HC N32D+D62R+Y112D/LC N35T+D97T) (Fab, V domains shown)
VH: QVQLQQSGPGLVKPSQTLSLTCAISGDSVSSDSAAWSWIRQSPGRGLEWLGIIYKRSKWYNRYAVSVKSRITINPDTSKNQFSLQLNSVTPEDTAVYYCARWHSDKHWGFDDWGQGTLVTVSS
VL: DIVMTQSPLSLPVTPGEPASISCRSSQSLVFSDGTTYLNWYLQKPGQSPQLLIYKGSNRASGVPDRFSGSGSGTDFTLKISRVEAEDVGVYYCQQYTSYPLTFGQGTKVEIKR
B2: B32.5 (4B7 HC D62R+Y112D/LC D33F+N35I) (Fab, V domains shown)
VH: B1 VH with D32N
VL: B1 VL with D33F, T35I, T97D
B3: gB9.7 (4B7 HC Q1E+N32D+G44S+K55Y+D62R+Y112D/LC S32R+N35I) (Fab, V domains shown)
VH: B1 VH with Q1E, G44S, K55Y
VL: B1 VL with S32R, T35I, T97D
B4: B41.2 (4B7 HC N32D+D62R+Y112D/LC S32R+D33F+N35I) (Fab, V domains shown)
VH: B1 VH
VL: B1 VL with S32R, D33F, T35I, T97D
B5: 4B7 wild-type Fab (Fab, V domains shown)
VH: B1 VH with D32N, R62D, D112Y
VL: B1 VL with T35N, T97D
notes: Fab with HA (or c-myc) and 6xHis tag at the C-terminus of the heavy chain; also called 4B7wt; parental 4B7
B6: 2A8 HC_G33P (Fab, V domains shown)
VH: QVQLVESGGGLVQPGGSLRLSCAASGFTFRSYPMSWVRQAPGKGLEWVSSIRGSSSSTYYADSVKGRFTISRDNSKNTLYLQMNSLRAEDTAVYYCARKYRYWFDYWGQGTLVTVSS
VL: DIELTQPPSVSVAPGQTARISCSGDNLRNYYAHWYQQKPGQAPVVVIYYDNNRPSGIPERFSGSNSGNTATLTISGTQAEDEADYYCQSWDDGVPVFGGGTKLTVLG
notes: also called 2A8-1
B7: 2A8 LC_N51V (Fab, V domains shown)
VH: B6 VH with P33G
VL: B6 VL with N51V
notes: also called 2A8-13
B8: 2A8 LC_A32N (Fab, V domains shown)
VH: B6 VH with P33G
VL: B6 VL with A32N
notes: also called 2A8-11
B9: 2A8 HC_S55R (Fab, V domains shown)
VH: B6 VH with P33G, S55R
VL: B6 VL
notes: also called 2A8-8
B10: 2A8 HC_I51D (Fab, V domains shown)
VH: B6 VH with P33G, I51D
VL: B6 VL
notes: also called 2A8-12
B11: 2A8 HC_F104Y (Fab, V domains shown)
VH: B6 VH with P33G, F104Y
VL: B6 VL
B12: 2A8 HC_S55A (Fab, V domains shown)
VH: B6 VH with P33G, S55A
VL: B6 VL
B13: 2A8 LC_N52G (Fab, V domains shown)
VH: B6 VH with P33G
VL: B6 VL with N52G
B14: 2A8 HC_S54D (Fab, V domains shown)
VH: B6 VH with P33G, S54D
VL: B6 VL
B15: 2A8 LC_V96M (Fab, V domains shown)
VH: B6 VH with P33G
VL: B6 VL with V96M
B16: 2A8 LC_V96G (Fab, V domains shown)
VH: B6 VH with P33G
VL: B6 VL with V96G
B17: 2A8 LC_D92T (Fab, V domains shown)
VH: B6 VH with P33G
VL: B6 VL with D92T
B18: 2A8 LC_D92S (Fab, V domains shown)
VH: B6 VH with P33G
VL: B6 VL with D92S
B19: 2A8 LC_P54L (Fab, V domains shown)
VH: B6 VH with P33G
VL: B6 VL with P54L
B20: 2A8 LC_V96W (Fab, V domains shown)
VH: B6 VH with P33G
VL: B6 VL with V96W
B21: 2A8 HC_S35L (Fab, V domains shown)
VH: B6 VH with P33G, S35L
VL: B6 VL
B22: 2A8 LC_D91R (Fab, V domains shown)
VH: B6 VH with P33G
VL: B6 VL with D91R
B23: 2A8 HC_G33K (Fab, V domains shown)
VH: B6 VH with P33K
VL: B6 VL

Target: T1, human tissue factor pathway inhibitor …
Assay: competitive ELISA

variant/HC_D62R [ratio] | Binder
26 | B1
20.3 | B2
22.6 | B3
29.7 | B4

Target: T2, mouse tissue factor pathway inhibitor …
Assay: competitive ELISA

variant/HC_D62R [ratio] | Binder
9.5 | B1
20.8 | B2
25.5 | B3
42 | B4

Target: T2, mouse tissue factor pathway inhibitor …
Assay: SPR, TFPI immobilized

Improvement [fold] | Kd [pM] | koff [s⁻¹] | kon [M⁻¹ s⁻¹] | Binder
1 | 58600 | 0.128 | 2.18e+06 | B5
2.21 | 1590 | 0.00145 | 912000 | B6

Target: T1, human tissue factor pathway inhibitor …
Assay: SPR, TFPI immobilized

Improvement [fold] | Kd [pM] | koff [s⁻¹] | kon [M⁻¹ s⁻¹] | Binder
1 | 11100 | 0.0084 | 756000 | B5
4.32 | 518 | 0.0022 | 4.26e+06 | B7
2.7 | 827 | 0.00224 | 2.71e+06 | B6
1.47 | 1520 | 0.0041 | 2.7e+06 | B8
2.44 | 917 | 0.00394 | 4.3e+06 | B9
1.63 | 1370 | 0.00495 | 3.61e+06 | B10

Target: T1, human tissue factor pathway inhibitor …
Assay: SPR, TFPI immobilized
Remark: another data set of the same source

KD fold improvement [fold] | Kd [pM] | koff [s⁻¹] | kon [M⁻¹ s⁻¹] | Binder
1 | 11100 | 0.0084 | 756000 | B5
875 | 12.7 | 3.53e-05 | 2.78e+06 | B1
749 | 14.8 | 3.19e-05 | 2.15e+06 | B2
1090 | 10.2 | 9.55e-06 | 938000 | B3
1550 | 7.16 | 2.47e-05 | 3.46e+06 | B4

Target: recombinant TFPI of the FXa restoring assay (human, mouse or rat; not specified for Tables 9 and 10)
Assay: cell-based or functional assay

IC50, FXa restoring assay [µg/mL] | Improvement vs parental, FXa restoring assay [fold] | Binder
1.46 | 1 | B5

Target: T1, human tissue factor pathway inhibitor …
Assay: competitive ELISA
Remark: another data set of the same source

variant/wild-type [ratio] | Binder
2 | B11
2 | B12
4.4 | B7
5.1 | B6
3.4 | B13
3.5 | B8
4.4 | B9
1.7 | B14
3.5 | B15
3.2 | B16
2.6 | B17
3.9 | B10
3.8 | B18
5.3 | B19
4 | B20
1.7 | B21
3.1 | B22
1.8 | B23

Target: T2, mouse tissue factor pathway inhibitor …
Assay: competitive ELISA
Remark: another data set of the same source

variant/wild-type [ratio] | Binder
1.5 | B11
1.2 | B12
2 | B7
2.9 | B6
1.5 | B13
2 | B8
2.1 | B9
1.2 | B14
1.5 | B15
1.2 | B16
1.2 | B17
1.4 | B10
2.6 | B18
2.7 | B19
4.3 | B20
1.5 | B21
2 | B22
0.7 | B23

Target: T2, mouse tissue factor pathway inhibitor …
Assay: SPR, TFPI immobilized
Remark: another data set of the same source

KD fold improvement [fold] | Kd [pM] | koff [s⁻¹] | kon [M⁻¹ s⁻¹] | Binder
1 | 54700 | 0.172 | 3.15e+06 | B5
299 | 183 | 0.000742 | 4.06e+06 | B1
528 | 104 | 0.000468 | 4.52e+06 | B2
275 | 199 | 0.000185 | 929000 | B3
1060 | 51.9 | 0.000245 | 4.73e+06 | B4
